Here are results for one substance from patent US20120134928A1.

The assay deals with Est1-(myc)13 (Saccharomyces cerevisiae (from context; not stated for this protein)) (UniProt P17214). Nature of the assay: co-immunoprecipitation with anti-Rat1 peptide antibodies from extracts of yeast over-expressing Est1-(myc)13, probed for myc.
UniProt P17214, sequence (P17214 whole entry): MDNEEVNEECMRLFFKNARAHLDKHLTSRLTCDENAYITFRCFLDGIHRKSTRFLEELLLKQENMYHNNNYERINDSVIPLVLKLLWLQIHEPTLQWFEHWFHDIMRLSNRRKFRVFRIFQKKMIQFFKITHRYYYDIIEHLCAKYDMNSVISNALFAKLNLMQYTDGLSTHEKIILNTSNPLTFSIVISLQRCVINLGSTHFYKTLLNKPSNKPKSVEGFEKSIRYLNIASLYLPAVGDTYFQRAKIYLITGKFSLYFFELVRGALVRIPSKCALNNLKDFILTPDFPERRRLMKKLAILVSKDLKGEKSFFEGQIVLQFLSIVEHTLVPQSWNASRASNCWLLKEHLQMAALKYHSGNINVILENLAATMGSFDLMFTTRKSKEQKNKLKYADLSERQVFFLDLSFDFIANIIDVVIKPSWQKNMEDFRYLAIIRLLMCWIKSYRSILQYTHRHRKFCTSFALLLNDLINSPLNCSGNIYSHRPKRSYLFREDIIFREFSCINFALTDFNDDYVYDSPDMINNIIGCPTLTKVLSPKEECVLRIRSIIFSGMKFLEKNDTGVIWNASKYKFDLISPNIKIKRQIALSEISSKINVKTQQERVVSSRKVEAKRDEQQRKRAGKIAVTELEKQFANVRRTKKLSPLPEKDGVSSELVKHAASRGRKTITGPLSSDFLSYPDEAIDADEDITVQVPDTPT

In turn, “S. cerevisiae Rat1 protein (from UniProt Q02792 2-1006) (enzyme)” had a co-immunoprecipitation efficiency of 5%.
